# Experimental data: IntAct's records for PubMed 22402663
# B1: Histone-lysine N-methyltransferase SETD7 (Homo sapiens), Q8WTS6 (parent)
# chain: MDSDDEMVEEAVEGHLDDDGLPHGFCTVTYSSTDRFEGNFVHGEKNGRGKFFFFDGSTLEGYYVDDALQGQGVYTYEDGGVLQGTYVDGELNGPAQEYDTDGRLIFKGQYKDNIRHGVCWIYYPDGGSLVGEVNEDGEMTGEKIAYVYPDERTALYGKFIDGEMIEGKLATLMSTEEGRPHFELMPGNSVYHFDKSTSSCISTNALLPDPYESERVYVAESLISSAGEGLFSKVAVGPNTVMSFYNGVRITHQEVDSRDWALNGNTLSLDEETVIDVPEPYNHVSKYCASLGHKANHSFTPNCIYDMFVHPRFGPIKCIRTLRAVEADEELTVAYGYDHSPPGKSGPEAPEWYQVELKAFQATQQK
# B2: Forkhead box protein O3 (Mus musculus), Q9WVH4 (parent)
# chain: MAEAPASPVPLSPLEVELDPEFEPQSRPRSCTWPLQRPELQASPAKPSGETAADSMIPEEDDDEDDEDGGGRASSAMVIGGGVSSTLGSGLLLEDSAMLLAPGGQDLGSGPASAAGALSGGTPTQLQPQQPLPQPQPGAAGGSGQPRKCSSRRNAWGNLSYADLITRAIESSPDKRLTLSQIYEWMVRCVPYFKDKGDSNSSAGWKNSIRHNLSLHSRFMRVQNEGTGKSSWWIINPDGGKSGKAPRRRAVSMDNSNKYTKSRGRAAKKKAALQAAPESADDSPSQLSKWPGSPTSRSSDELDAWTDFRSRTNSNASTVSGRLSPILASTELDDVQDDDGPLSPMLYSSSASLSPSVSKPCTVELPRLTDMAGTMNLNDGLAENLMDDLLDNIALPPSQPSPPGGLMQRGSSFPYTAKSSGLGSPTGSFNSTVFGPSSLNSLRQSPMQTIQENRPATFSSVSHYGNQTLQDLLASDSLSHSDVMMTQSDPLMSQASTAVSAQNARRNVMLRNDPMMSFAAQPTQGSLVNQNLLHHQHQTQGALGGSRALSNSVSNMGLSDSSSLGSAKHQQQSPASQSMQTLSDSLSGSSLYSASANLPVMGHDKFPSDLDLDMFNGSLECDMESIIRSELMDADGLDFNFDSLISTQNVVGLNVGNFTGAKQASSQSWVPG
# partner: B1 chain
# Variants of: B1
# Details: with foxo3_mouse Foxo3, Q9WVH4
row,Variant,effect of a mutation on the interaction
1,MDSDDEMVEEAVEGHLDDDGLPHGFCTVTYSSTDRFEGNFVHGEKNGRGKFFFFDGSTLEGYYVDDALQGQGVYTYEDGGVLQGTYVDGELNGPAQEYDTDGRLIFKGQYKDNIRHGVCWIYYPDGGSLVGEVNEDGEMTGEKIAYVYPDERTALYGKFIDGEMIEGKLATLMSTEEGRPHFELMPGNSVYHFDKSTSSCISTNALLPDPYESERVYVAESLISSAGEGLFSKVAVGPNTVMSFYNGVRITHQEVDSRDWALNGNTLSLDEETVIDVPEPYNHVSKYCASLGHKANASFTPNCIYDMFVHPRFGPIKCIRTLRAVEADEELTVAYGYDHSPPGKSGPEAPEWYQVELKAFQATQQK [H297A],disrupting interaction

# Variants of: B2
# Details: with setd7_human SETD7, Q8WTS6
row,Variant,effect of a mutation on the interaction
1,K270R,disrupting interaction
